Assay results reported in patent US20180273635A1 (Zymeworks, published 2018).
Like-named read-outs stand apart in the source and are kept apart here.

Experiments:
[1] = target: T1, HER2 expressed on the surface of cells (human, UniProt P04626 23-1255); assay: flow cytometry on SKBR3 cells, n=1; B50 = concentration at 50% of Bmax
T1 construct: whole, on cells; also called ErbB2
Protocol: (§1) Binding of the test antigen-binding constructs to the surface of HER2+ cells was determined by flow cytometry. Cells were washed with PBS and resuspended in DMEM at 1×10⁵ cells/100 μl. 100 μl cell suspension was added into each microcentrifuge tube, followed by 10 μl/tube of the antigen-binding constructs. The tubes were incubated for 2 hr at 4° C. on a rotator. The microcentrifuge tubes were centrifuged for 2 min 2000 RPM at room temperature and the cell pellets washed with 500 μl media. Each cell pellet was resuspended in 100 μl of fluorochrome-labelled secondary antibody diluted in media to 2 μg/sample. The samples were then incubated for lhr at 4° C. on a rotator. After incubation, the cells were centrifuged for 2 min at 2000 rpm and washed in media. The cells were resuspended in 500 μl media, filtered, transferred to a tube containing 5 μl propidium iodide (PI) and analyzed on a BD LSR II flow cytometer according to the manufacturer's instructions. The B50 of the tested antigen-binding constructs was assessed by FACS with data analysis and curve fitting performed in GraphPad Prism. The experiment was carried out once (n=1) in SKBr3 cells, and twice (n=2) in SKOV3, MCF7, and BT-474 cells.
(§2) The experiment was performed once (n=1) in each cell line.

[2] = target: T1, HER2 expressed on the surface of cells; assay: flow cytometry on MCF7 cells (low HER2), n=1
Protocol: as §1, §2

[3] = target: T1, HER2 expressed on the surface of cells; assay: cell-based or functional assay
[4] = target: T1, HER2 expressed on the surface of cells; assay: flow cytometry on BT474 cells, n=1
Protocol: as §1, §2

[5] = target: T1, HER2 expressed on the surface of cells; assay: cell-based or functional assay; remark: listed apart in the source
[6] = target: T1, HER2 expressed on the surface of cells; assay: cell-based or functional assay; remark: listed apart in the source
[7] = target: T1, HER2 expressed on the surface of cells; assay: cell-based or functional assay; remark: listed apart in the source
[8] = target: T1, HER2 expressed on the surface of cells; assay: cell-based or functional assay; remark: listed apart in the source
[9] = target: T1, HER2 expressed on the surface of cells; assay: flow cytometry on BT474 cells, n=1; B50 = concentration at 50% of Bmax
Protocol: as §1, §2

[10] = target: T1, HER2 expressed on the surface of cells; assay: flow cytometry on SKBR3 cells, n=1
Protocol: as §1, §2

[11] = target: T1, HER2 expressed on the surface of cells; assay: flow cytometry on MCF7 cells (low HER2), n=1; B50 = concentration at 50% of Bmax
Protocol: as §1, §2

Recombinant human HER2 [12] = target: T2, Recombinant human HER2 (human, UniProt P04626 23-652); assay: SPR at 25 C of the OA variant, logarithm of the association constant
T2 construct: extracellular domain; Analyte of the SPR assays; also called HER2 ECD; ECD2 of HER2
Protocol: (§3) The affinity towards HER2 ECD of the samples was measured by SPR on a Biacore T200 as follows. Between 2000 and 4000 RU of anti-human Fc injected at concentration between 5 and 10 μg/ml was immobilized on a CM5 chip using standard amine coupling. Antigen-binding constructs were captured on the anti-human Fc (injected at concentration at 0.51 microg/mL in PBST, 1 min at 10 microl/min) at response levels ranging from 120-270 RU. […] HER2 dilutions were analyzed in duplicates. Sensograms were fit globally to a 1: 1 Langmuir binding model, using the software provided with the Biacore T200. All experiments were conducted at 25° C.

Recombinant human HER2 [13] = target: T2, Recombinant human HER2; assay: as above; remark: listed apart in the source
Protocol: as §3

Recombinant human HER2 [14] = target: T2, Recombinant human HER2; assay: SPR at 25 C of the OA variant, equilibrium association constant
Protocol: as §3

Recombinant human HER2 [15] = target: T2, Recombinant human HER2; assay: as above; remark: listed apart in the source
Protocol: as §3

Recombinant human HER2 [16] = target: T2, Recombinant human HER2; assay: calculated from the SPR Ka ratio to WT v10013;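 further: SPR at 25 °C with constructs captured on an anti-human Fc chip and HER2 extracellular domain as analyte, kinetics fitted to a 1:1 Langmuir model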
Protocol: as §3

Recombinant human HER2 [17] = target: T2, Recombinant human HER2; assay: SPR, Biacore T200, 25 C; variant captured on anti-human Fc, HER2 flowed;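 further: HER2 extracellular domain analyte run as duplicate dilutions over amine-coupled anti-Fc on a CM5 chip, rates from global sensorgram fitting with a 1:1 Langmuir model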
Protocol: as §3

Recombinant human HER2 [18] = target: T2, Recombinant human HER2; assay: SPR, 25 C; Ka ratio to WT v10013;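 further: constructs captured via anti-human Fc on CM5 chip, HER2 ECD as analyte in duplicate dilutions, sensorgrams globally fit to 1:1 Langmuir model on Biacore T200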
Protocol: as §3

Binder	B50 [1]	Bmax [2]	growth inhibition IC50 (potency), NCI-N87 cells, 5 days [3]	growth inhibition span (percentage of cells killed), NCI-N87 cells [3]	increase in efficacy with respect to the WT, NCI-N87 cells [3]	increase in potency with respect to the WT, NCI-N87 cells [3]	Bmax [4]	growth inhibition IC50 (potency), SKBR3 cells [5]	growth inhibition span (percentage of cells killed), SKBR3 cells [5]	growth inhibition span ratio to WT, SKBR3 cells [5]	growth inhibition IC50 (potency), BT474 cells [6]	growth inhibition span (percentage of cells killed), BT474 cells [6]	growth inhibition span ratio to WT, BT474 cells [6]	growth inhibition span (percentage of cells killed), MDA-MB-175 cells [7]	growth inhibition IC50 (potency), BT474 cells + EGF [8]	growth inhibition span (percentage of cells killed), BT474 cells + EGF [8]	growth inhibition span ratio to WT, BT474 cells + EGF [8]	B50 [9]	Bmax [10]	B50 [11]	also measured
Variant 14021 (antibody, name in Kabat numbering, V domains shown, also called v14021) VH: EVQLVESGGGLVQPGGSLRLSCAASGFTFQDYTMDWVRQAPGKGLEWVGDVNPNSGGSIYNQRFKGRFTFSVDRSWNTLYLQMNSLRAEDTAVYYCARNLGPSFYFDYWGQGTLVTVSS VL: DIQMTQSPSSLSASVGDRVTITCKASQDVSIGVAWYQQKPGKAPKLLIWSASYRYTGVPSRFSGSGSGTDFTLTISSLQPEDFATYYCQQYYIYPYTFGQGTKVEIKR	10 nM	610 MFI	2 nM	44%	2.6 fold	4.6 fold	23000 MFI	0.32 nM	31%	1.8 fold	0.49 nM	33%	3.1 fold	82%	2 nM	44%	2.4 fold	2.4 nM	31000 MFI	1 nM	
Variant 14023 (antibody, name in Kabat numbering, V domains shown, also called v14023) VH: EVQLVESGGGLVQPGGSLRLSCAASGFTFQDYTMDWVRQAPGKGLEWVGDVNPNSGGSIYNQRFKGRFTFSVDRSWNTLYLQMNSLRAEDTAVYYCARNLGPWFYFDYWGQGTLVTVSS VL: DIQMTQSPSSLSASVGDRVTITCKASQDVSIGVAWYQQKPGKAPKLLIWSASYRYTGVPSRFSGSGSGTDFTLTISSLQPEDFATYYCQQYYIYPYTFGQGTKVEIKR	3.9 nM	590 MFI	2.5 nM	52%	3.1 fold	3.6 fold	23000 MFI	0.34 nM	32%	1.9 fold	0.63 nM	35%	3.3 fold	84%	1.7 nM	45%	2.5 fold	2 nM	29000 MFI	0.8 nM	
Variant 14022 (antibody, name in Kabat numbering, V domains shown, also called v14022) VH: EVQLVESGGGLVQPGGSLRLSCAASGFTFQDYTMDWVRQAPGKGLEWVGDVNPNSGGSIYNQRFKGRFTFSVDRSKNTLYLQMNSLRAEDTAVYYCARNLGPWFYFDYWGQGTLVTVSS VL: DIQMTQSPSSLSASVGDRVTITCKASQDVSIGVAWYQQKPGKAPKLLIWSASYRYTGVPSRFSGSGSGTDFTLTISSLQPEDFATYYCQQYYIYPYTFGQGTKVEIKR	9.8 nM	630 MFI	5.2 nM	63%	3.7 fold	1.8 fold	23000 MFI	0.41 nM	26%	1.6 fold	0.54 nM	28%	2.6 fold	83%	2.8 nM	35%	1.9 fold	3 nM	31000 MFI	2 nM	
Variant 10014 (antibody, Fc substitutions are in EU numbering; also called v10014) heavy: EVQLVESGGGLVQPGGSLRLSCAASGFTFADYTMDWVRQAPGKGLEWVADVNPNSGGSIYNQRFKGRFTLSVDRSKNTLYLQMNSLRAEDTAVYYCARNLGPSFYFDYWGQGTLVTVSSASTKGPSVFPLAPSSKSTSGGTAALGCLVKDYFPEPVTVSWNSGALTSGVHTFPAVLQSSGLYSLSSVVTVPSSSLGTQTYICNVNHKPSNTKVDKKVEPKSCDKTHTCPPCPAPELLGGPSVFLFPPKPKDTLMISRTPEVTCVVVDVSHEDPEVKFNWYVDGVEVHNAKTKPREEQYNSTYRVVSVLTVLHQDWLNGKEYKCKVSNKALPAPIEKTISKAKGQPREPQVYVYPPSRDELTKNQVSLTCLVKGFYPSDIAVEWESNGQPENNYKTTPPVLDSDGSFALVSKLTVDKSRWQQGNVFSCSVMHEALHNHYTQKSLSLSPG light: not shown Fc: not shown																					Log Ka (Recombinant human HER2 [12]): 8.7; Log Ka (Recombinant human HER2 [13]): 8.7; Ka (Recombinant human HER2 [14]): 4.7e+08 M⁻¹; Ka (Recombinant human HER2 [15]): 4.7e+08 M⁻¹
Variant 14024 (antibody, human IgG1, kappa, OA (one-armed) format; clones 7844, 7919, 4372; also called v14024) heavy: EVQLVESGGGLVQPGGSLRLSCAASGFTFTDYTMDWVRQAPGKGLEWVADVNPNSGGSIYNQRFKGRFTLSVDRSWNTLYLQMNSLRAEDTAVYYCARNLGPSFYFDYWGQGTLVTVSSASTKGPSVFPLAPSSKSTSGGTAALGCLVKDYFPEPVTVSWNSGALTSGVHTFPAVLQSSGLYSLSSVVTVPSSSLGTQTYICNVNHKPSNTKVDKKVEPKSCDKTHTCPPCPAPELLGGPSVFLFPPKPKDTLMISRTPEVTCVVVDVSHEDPEVKFNWYVDGVEVHNAKTKPREEQYNSTYRVVSVLTVLHQDWLNGKEYKCKVSNKALPAPIEKTISKAKGQPREPQVYVYPPSRDELTKNQVSLTCLVKGFYPSDIAVEWESNGQPENNYKTTPPVLDSDGSFALVSKLTVDKSRWQQGNVFSCSVMHEALHNHYTQKSLSLSPG light: not shown not shown																					ΔΔG (Recombinant human HER2 [16]): -2.5 kcal/mol; Log Ka (Recombinant human HER2 [12]): 9.6; Kd (Recombinant human HER2 [17]): ~0.25 nM; koff (Recombinant human HER2 [17]): ~2.1e-05 s⁻¹; kon (Recombinant human HER2 [17]): 85000 M⁻¹ s⁻¹; Log Ka (Recombinant human HER2 [13]): 9.6; Ka, mut/Ka, WT (Recombinant human HER2 [18]): ~67 fold; Ka (Recombinant human HER2 [14]): 4e+09 M⁻¹; Ka (Recombinant human HER2 [15]): 4e+09 M⁻¹
Variant 14025 (antibody, human IgG1, kappa, OA (one-armed) format; clones 8775, 1811, 4372; also called v14025) heavy: EVQLVESGGGLVQPGGSLRLSCAASGFTFQDYTMDWVRQAPGKGLEWVADVNPNSGGSIYNQRFKGRFTLSVDRSWNTLYLQMNSLRAEDTAVYYCARNLGPSFYFDYWGQGTLVTVSSASTKGPSVFPLAPSSKSTSGGTAALGCLVKDYFPEPVTVSWNSGALTSGVHTFPAVLQSSGLYSLSSVVTVPSSSLGTQTYICNVNHKPSNTKVDKKVEPKSCDKTHTCPPCPAPELLGGPSVFLFPPKPKDTLMISRTPEVTCVVVDVSHEDPEVKFNWYVDGVEVHNAKTKPREEQYNSTYRVVSVLTVLHQDWLNGKEYKCKVSNKALPAPIEKTISKAKGQPREPQVYVYPPSRDELTKNQVSLTCLVKGFYPSDIAVEWESNGQPENNYKTTPPVLDSDGSFALVSKLTVDKSRWQQGNVFSCSVMHEALHNHYTQKSLSLSPG light: not shown not shown																					ΔΔG (Recombinant human HER2 [16]): -2.2 kcal/mol; Log Ka (Recombinant human HER2 [12]): 9.4; Kd (Recombinant human HER2 [17]): ~0.4 nM; koff (Recombinant human HER2 [17]): ~2.6e-05 s⁻¹; kon (Recombinant human HER2 [17]): 65000 M⁻¹ s⁻¹; Log Ka (Recombinant human HER2 [13]): 9.4; Ka, mut/Ka, WT (Recombinant human HER2 [18]): ~41 fold; Ka (Recombinant human HER2 [14]): 2.5e+09 M⁻¹; Ka (Recombinant human HER2 [15]): 2.5e+09 M⁻¹
